From patent US20090137484A1, “Neuronal Network-Interacting Peptide” (NATIONAL UNIVERSITY OF SINGAPORE, priority 2004, published 2009)
Where a SMILES comes first, the peptide text is derived from it. Where no end group is shown, it is not given here.

B1: third Grb4 SH3 domain, Grb4 residues 199-257 (other, human, UniProt O43639 199-257, looked up)
chain: VVQTLYPFSSVTEEELNFEKGETMEVIEKPENDPEWWKCKNARGQVGLVPKNYVVVLSD
modifications: also: His-tag, sequence and removal not given here, 15N-labelled
notes: range 199-257; Expressed in E. coli as a His-tagged protein; It was 15N-labelled for NMR; also called SH3_3
B2: Nogo-A (32-200) (other)
chain: EDEEEEEEEEEEDEDEDLEELEVLERKPAAGLSAAPVPTAPAAGAPLMDFGNDFVPPAPRGPLPAAPPVAPERQPSWDPSPVSSTVPAPSPLSAAAVSPSKLPEDDEPPARPPPPPPASVSPQAEPVWTPPAPAPAAPPSTPAAPKRRGSSGSVDETLFALPAASEPVI
notes: Recombinant, cloned into pET32a and expressed in E. coli
B3: Nogo-A (171-181) Ac-STPAAPKRRGS-NH2 (peptide)
peptide: Ac-STPAAPKRRGS-NH2
notes: Chemically synthesised by the Fmoc method; also called 11-residue Nogo-A (171-181) peptide
B4: Nogo-A (1-200): recombinant N-terminal fragment of human Nogo-A, residues 1-200, expressed in E. coli (protein)
chain: MEDLDQSPLVSSSDSPPRPQPAFKYQFVREPEDEEEEEEEEEEDEDEDLEELEVLERKPAAGLSAAPVPTAPAAGAPLMDFGNDFVPPAPRGPLPAAPPVAPERQPSWDPSPVSSTVPAPSPLSAAAVSPSKLPEDDEPPARPPPPPPASVSPQAEPVWTPPAPAPAAPPSTPAAPKRRGSSGSVDETLFALPAASEPVI

Assays:
[1] = biological target: T1, Grb4 SH3_3 (third SH3 domain, Grb4 residues 199-257) (Homo sapiens, UniProt O43639); experiment: Isothermal titration calorimetry of Nogo fragments with Grb4 SH3_3; assay type: binding
T1 construct: corresponding to the human Grb4 residues 5-61; 115-171 and 199-257 respectively; His-tag; made in house; host or cells: E. coli BL21
T1 sequence (O43639 198-256): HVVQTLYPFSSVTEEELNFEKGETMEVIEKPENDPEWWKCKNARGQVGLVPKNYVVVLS
Method: (§1) All calorimetric titrations were performed on a Microcal VP ITC machine (Microcal, USA). The protein/peptide samples were dissolved in the 50 mM Tris buffer (pH 7.0), with 3 mM 2-mercaptoethanol. After centrifugation for 15 min, the samples were degassed for 15 min to avoid the bubble formation. The Grb4 SH3 samples with a concentration of 0.025 or 0.05 mM were placed in the 1.4 ml reaction cell and 1.0 mM Nogo samples were loaded into the […] injection syringe. All titrations were performed at 25° C. and the obtained data was fitted using the ORIGIN software (Originlab Corporation). NMR experiments were performed on a 500 MHz Bruker DRX spectrometer equipped with an actively shielded cryoprobe and an 800 MHz Bruker Avance spectrometer (Sattler, M., et al., (1999) Prog. NMR Spectrosc. 34, 93-158.). NMR data was processed with NMRPipe (Delaglio, F et al., (1995) J. Biomol. NMR 6, 277-293) and analysed with NMRView (Johnson, B. A. & Blevins, R. A. (1994). J. Biomol. NMR 4, 603-614.).
Both Nogo-A (1-200) and Grb4 (115-257) were further dissected into different Nogo fragments and two different […] domains based on sequence alignment as detailed in Table 1 and the interactions among them were studied first by NMR HSQC titration followed by isothermal titration calorimetry (ITC) to obtain thermodynamic parameters of the binding interaction. As presented in Table 2, two complete sets of thermodynamic parameters were derived from ITC measurements, one set for the interaction between Nogo-A (32-200) and the third Grb4 SH3 domain and another set for the interaction between the 11-residue Nogo-A (171-181) and the third Grb4 SH3 domain. […] Many factors account for this observation. One possibility is that in the Nogo-A (32-200) protein, this 11-residue binding region is less accessible. Alternatively, the presence of other regions without any significant contribution to the binding will unavoidably reduce the binding affinity.

[2] = biological target: T2, Grb4 SH3_3 (third SH3 domain, Grb4 residues 199-257) (Homo sapiens, UniProt O43639); experiment: 1H-15N NMR HSQC titration of Nogo fragments with Grb4 SH3_3; assay type: binding; conditions: two-fold excess of the peptide (FIG. 1b)
T2 construct: corresponding to the human Grb4 residues 5-61; 115-171 and 199-257 respectively; His-tag; made in house; host or cells: E. coli BL21
T2 sequence (O43639 199-257): B1 chain
Method: as §1
(§2) The ^1H-^15N HSQC titration experiments were conducted according to our previous procedure (Song J. (2003) J Biol Chem. 278, 24714-20). […]
To further validate the identified binding interaction, we determined the solution structure of the third Grb4 SH3 domain by use of heteronuclear tripleresonance NMR methodology as described briefly in Examples 1 and 2. […]

[3] = biological target: T3, Grb4 SH3_2 (second SH3 domain, Grb4 residues 115-170) (Homo sapiens, UniProt O43639); experiment: 1H-15N NMR HSQC titration of Nogo fragments with Grb4 SH3_2; assay type: binding; conditions: for Binding detected by NMR: Grb4 fragment SH3_2
T3 construct: corresponding to the human Grb4 residues 5-61; 115-171 and 199-257 respectively; His-tag; made in house; host or cells: E. coli BL21
T3 sequence (O43639 115-171): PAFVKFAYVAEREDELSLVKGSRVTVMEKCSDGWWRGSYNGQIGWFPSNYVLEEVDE
Method: as §1
The ^1H-^15N HSQC titration experiments were conducted according to our previous procedure (Song J. (2003) J Biol Chem. 278, 24714-20). For structure determination, backbone sequential assignments were achieved by analysing HNCACB, CBCA(CO)NH, HNCO experiments while side chain assignments were obtained from (H)CC(CO)NH, H(CCO)NH, HCCH-TOCSY, ^15N-edited TOCSY-HSQC and NOESY-HSQC. Structure determination of the third Grb4 SH3 domain was conducted by a standard CNS (Crystallography and NMR System) protocol as described in our previous publication (Li M, et al., 2004, Eur J. Biochem. 271, 3512-22) with NOE constraints derived from ^15N- and ^13C-NOESY spectra and dihedral angle constraints from TALOS prediction using 5 different chemical shifts. The accepted NMR structure with the lowest energy was selected for analysis and manipulation to generate FIG. 1 by use of MolMol graphic software (Koradi, R., et al., (1996) J. Mol. Graphics. 14, 51-55.). […]

[4] = biological target: B2; experiment: ITC at 25 C, Nogo in syringe, SH3_3 (25 µM) in cell, Tris pH 7.0; design: ΔS: unit not given here
Method: as §1

[5] = biological target: T3, Grb4 SH3_2 (second SH3 domain, Grb4 residues 115-170); experiment: Isothermal titration calorimetry of Nogo fragments with Grb4 SH3_2; assay type: binding; conditions: Grb4 fragment SH3_2
Method: as §1
(§3) Both Nogo-A (1-200) and Grb4 (115-257) were further dissected into different Nogo fragments and two different […] domains based on sequence alignment as detailed in Table 1 and the interactions among them were studied first by NMR HSQC titration followed by isothermal titration calorimetry (ITC) to obtain thermodynamic parameters of the binding interaction. […]

[6] = biological target: B1; experiment: ITC at 25 C, Nogo in syringe, SH3_3 (25 µM) in cell, Tris pH 7.0; design: ΔS: unit not given here
Method: as §1

[7] = biological target: T4, Grb4 SH3_23 (second and third SH3 domains, Grb4 residues 115-257) (Homo sapiens, UniProt O43639); experiment: Isothermal titration calorimetry of Nogo fragments with Grb4 SH3_23; assay type: binding; conditions: Grb4 fragment SH3_23
T4 construct: Grb4 (115-257) containing the second and third SH3 domains were expressed; His-tag; made in house; host or cells: E. coli BL21
T4 sequence (O43639 115-257): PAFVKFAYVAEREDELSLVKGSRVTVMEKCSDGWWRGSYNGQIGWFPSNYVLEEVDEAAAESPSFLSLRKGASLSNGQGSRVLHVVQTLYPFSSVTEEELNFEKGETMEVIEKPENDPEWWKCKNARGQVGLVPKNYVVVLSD
Method: as §1, §3

[8] = biological target: B1; experiment: ITC at 25 C, peptide in syringe, SH3_3 (50 µM) in cell, Tris pH 7.0; design: ΔS: unit not given here
Method: as §1

[9] = biological target: B1; experiment: ITC, comparison of the two sets of Table 2
Method: as §1

[10] = biological target: T4, Grb4 SH3_23 (second and third SH3 domains, Grb4 residues 115-257); experiment: 1H-15N NMR HSQC titration of Nogo fragments with Grb4 SH3_23; assay type: binding; conditions: four-fold excess of unlabelled Nogo protein; pH 6.8, 20° C. (FIG. 2)
Method: as §1, §2
The present inventors also determined whether a cross-talk existed between Nogo and Eph receptor-ephrinB mediated signalling networks, and whether Grb4 was the convergence point. […]

[11] = ITC at 25° C., Tris pH 7.0, Nogo in syringe, SH3_3 in cell (25 or 50 μM)

CC(=O)N[C@@H](CO)C(=O)N[C@H](C(=O)N1CCC[C@H]1C(=O)N[C@@H](C)C(=O)N[C@@H](C)C(=O)N1CCC[C@H]1C(=O)N[C@@H](CCCCN)C(=O)N[C@@H](CCCNC(=N)N)C(=O)N[C@@H](CCCNC(=N)N)C(=O)NCC(=O)N[C@@H](CO)C(N)=O)[C@@H](C)O [Nogo-A (171-181), Ac-STPAAPKRRGS-NH2] (Ac-STPAAPKRRGS-NH2)
Ka [1, 11]: 357000 ± 21000 M⁻¹
Kd [1, 11]: 2.8 µM
Stoichiometry n [1, 11]: 0.95 ± 0.068
ΔH [1, 11]: −3,310 ± 499 cal/mol
ΔS [1, 11]: 14.3 cal/(mol·K)
Binding affinity to the third Grb4 SH3 domain relative to Nogo-A (32-200) ([1]; higher than Nogo-A (32-200)): about 30 fold
HSQC peaks of the 15N-labeled third SH3 domain undergoing a significant shift [2]: ~50%
Binding with the second Grb4 SH3 domain (specificity statement) [3]: no significant binding

Ac-ARPPPPPPAS-NH2 [Nogo-A (141-150), chemically synthesised peptide, fragment 141-150 of Nogo A]
Binding detected by ITC ([1]; Grb4 fragment SH3_3): Very weak

B1
Ka [4]: 11500 M⁻¹
Kd [4]: 87 µM

B2
Binding detected by ITC [5]: Very weak
Ka [1, 11]: 11500 ± 2200 M⁻¹
Kd [1, 11]: 87 µM
Stoichiometry n [6]: 1.13
ΔH [6]: 69.6 kcal/mol
ΔS [6]: 252
Binding detected by ITC [7]: Very weak
Binding detected by NMR [3]: Very weak

B3
Ka [8]: 357000 M⁻¹
Stoichiometry n [8]: 0.95
ΔH [8]: -3.31 kcal/mol
ΔS [8]: 14.3
fold higher binding affinity than Nogo-A (32-200) [9]: ~30 fold

B4
Shifts of HSQC peaks of 15N-labeled Grb4 (115-257) [10]: significant shifts of the HSQC peaks
Binding detected by NMR [3]: Very weak
